Results published in US20240376214A1, “ANTI-C-MET ANTIBODIES AND ANTIBODY-DRUG CONJUGATES” (BYONDIS B.V., priority 2021, published 2024).

Experiments:
c-Met = target: T1, c-Met (Homo sapiens, UniProt P08581, DEL964-1010); test: Functionality of chimeric antibodies, stimulation of proliferation experiment in NCI-H596 cells; format: cell-based
T1 construct: endogenous in cells; host or cells: NCI-H596
From the text: From this perspective, although all three wt/41C chimeric mAbs were humanized and studied in further experiments, wt/41C-chi-mAb3 is the most preferred chimeric anti-c-Met antibody to further develop into an ADC for treatment of a cancer indication.

[1] = target: T2, human c-Met (HGFR), full length, on the cell surface (human, UniProt P08581 25-1390); test: flow cytometry on MKN45, NCI-H596 and PC-3 cells
T2 construct: Endogenous c-Met on human tumor cell lines MKN45, NCI-H596, PC-3 and HepG2; also called hepatocyte growth factor receptor; mesenchymal-epithelial transition factor
Procedure: Cellular binding of the 14 wild-type chimeric and the 14 HC-41C chimeric anti-c-Met antibodies was studied in human c-Met-positive tumor cell lines MKN45, NCI-H596 and PC-3, rhesus c-Met-positive tumor cell line 4 MBr-5, and human c-Met-negative tumor cell line MDA-MB-175-VII. Cells were used around 90% of confluence at the time of an assay, detached with Trypsin-Versene (EDTA) (Lonza) for 5-10 minutes, washed and adjusted to a concentration of 1×10⁶ cells/mL in ice-cold FACS buffer (PBS 1×, 0.1% v/w BSA, 0.02% v/v sodium azide (NaN₃)). Staining was performed in 96-well round-bottomed microtiter plates using ice-cold reagents/solutions at 4° C. to prevent the modulation and internalization of surface antigens. 100,000 cells/well were added to 96-well plates (100 μL/well) and centrifuged at 300×g for 3 minutes. In case of pre-incubation with HGF (paracrine cell lines only), the cells were resuspended in 50 ng/mL recombinant human HGF in FACS buffer (50 μL/well) and incubated for 30 minutes at 4° C., followed by two wash steps with 150 μL FACS buffer. Supernatant was discarded and cells were stained for 30 minutes with 50 μL of each antibody. Serial dilutions were made in ice-cold FACS buffer. Cells were washed twice by centrifugation at 300×g for 3 minutes and resuspended in 50 μL 6000-times diluted secondary F(ab′)₂ goat anti-human IgG (Fc fragment specific) antibody APC-conjugated (Jackson ImmunoResearch). Following a 30-minute incubation on ice, cells were washed again 2 times and resuspended in 150 μL ice-cold FACS buffer for FACS analysis. For analysis of the data, the Median Fluorescence Intensity (MFI) values were obtained.

[2] = target: T2, human c-Met (HGFR), full length, on the …; test: cell binding on c-Met positive MKN45 cells, fluorescence readout RFU (R-PE), mean ± S.E.M. of two experiments in duplicate
[3] = target: T2, human c-Met (HGFR), full length, on the …; test: cell-based or functional assay

B1: wt-chi-mAb1: wild-type chimeric anti-c-Met IgG1 antibody, VH SEQ ID NO:1, VL SEQ ID NO:2 (antibody, V domains shown)
VH: EVQLQQSGPELLKPGASVKMSCKASGYIFTDYFMNWVKQSHGKSLEWIGRVNPKNGDITYNQKFRGKATLTVDKSLTTAYMQLNSLTSEDSAVYFCAYDGYYDGMDFWGQGTSVTVSS
VL: ENVLTQSPAIMSASPGEKVTMTCRANSSVSSNFLHWYQQKSGASPKLWISSTSNLAFGVPPRFSGSGSGTSYSLTISSVEAEDAATYYCHQYSGHPFTFGSGTKLEIK
modifications: human IgG1 constant regions; HCVR; LCVR
With B1 the Functionality (c-Met) was “Partial agonist”.

B2: 41C-chi-mAb1: HC-41C chimeric anti-c-Met IgG1 antibody, VH SEQ ID NO:7, VL SEQ ID NO:2 (antibody, V domains shown)
VH: EVQLQQSGPELLKPGASVKMSCKASGYIFTDYFMNWVKQSCGKSLEWIGRVNPKNGDITYNQKFRGKATLTVDKSLTTAYMQLNSLTSEDSAVYFCAYDGYYDGMDFWGQGTSVTVSS
VL: ENVLTQSPAIMSASPGEKVTMTCRANSSVSSNFLHWYQQKSGASPKLWISSTSNLAFGVPPRFSGSGSGTSYSLTISSVEAEDAATYYCHQYSGHPFTFGSGTKLEIK
modifications: IgG1 constant regions; HCVR - VH H41C; LCVR
In the case of B2, the Functionality (c-Met) is reported as “Partial agonist”.

B3: 41C-chi-mAb2: HC-41C chimeric anti-c-Met IgG1 antibody, VH SEQ ID NO:8, VL SEQ ID NO:4 (antibody, V domains shown)
VH: QVQLQQSGAELVRPGASVKLSCKASGYVFPDYEMHWVKQTCVHGLEWIGAFDPETGDTTYNQNFKGKATLTADKASSTAYMDLRSLTSGDSAVYYCARDYKYLYYYAMDNWGQGTSVTVSS
VL: QIVLTQSPAIMSASLGERVTMTCTASSSITSSYLHWYQQKPGSSPKLWIYSTTNLASGVPGRFSGSGSGTSFSLTISSMEAEDAATYYCHQYRRSPLTFGAGTKLELK
modifications: IgG1 constant regions; HCVR - VH P41C; LCVR
With B3 the Functionality (c-Met) was “Partial agonist”.

B4: wt-chi-mAb2: wild-type chimeric anti-c-Met IgG1 antibody, VH SEQ ID NO:3, VL SEQ ID NO:4 (antibody, V domains shown)
VH: QVQLQQSGAELVRPGASVKLSCKASGYVFPDYEMHWVKQTPVHGLEWIGAFDPETGDTTYNQNFKGKATLTADKASSTAYMDLRSLTSGDSAVYYCARDYKYLYYYAMDNWGQGTSVTVSS
VL: QIVLTQSPAIMSASLGERVTMTCTASSSITSSYLHWYQQKPGSSPKLWIYSTTNLASGVPGRFSGSGSGTSFSLTISSMEAEDAATYYCHQYRRSPLTFGAGTKLELK
modifications: human IgG1 constant regions; HCVR; LCVR
B4 was tested, and the Functionality (c-Met) was “Partial agonist”.

B5: wt-chi-mAb3 (antibody, human IgG1, kappa, V domains shown)
VH: QIQLQQSGPELVKPGASVKISCKASGYTFTDYYLNWVKQRPGQGLEWIGLIFPGNDKTEYSEKFKGKATLTVDTSSSTAYIQLSRLSSEDSAIYFCSGGDYGGFVYWGQGTLVTVSS
VL: DIQMTQSPTSLSASVGETVTITCGASENIYGALNWYQRKQGKSPQLLIYGATNLADGMSSRFSGSGSGRQFSLKINSLHPDDVATYFCQNVLSSPLTFGSGTKLEIKR
notes: Mouse/human chimeric IgG1 kappa; also called wild-type chimeric antibody mAb3
B5: binds [1].

B6: wt-chi-mAb3: wild-type chimeric anti-c-Met IgG1 antibody, VH SEQ ID NO:5, VL SEQ ID NO:6 (antibody, V domains shown)
VH: QIQLQQSGPELVKPGASVKISCKASGYTFTDYYLNWVKQRPGQGLEWIGLIFPGNDKTEYSEKFKGKATLTVDTSSSTAYIQLSRLSSEDSAIYFCSGGDYGGFVYWGQGTLVTVSS
VL: DIQMTQSPTSLSASVGETVTITCGASENIYGALNWYQRKQGKSPQLLIYGATNLADGMSSRFSGSGSGRQFSLKINSLHPDDVATYFCQNVLSSPLTFGSGTKLEIK
modifications: human IgG1 constant regions; HCVR; LCVR
B6 was tested, and the Functionality (c-Met) was “Neutral”.

B7: 41C-chi-mAb3: HC-41C chimeric anti-c-Met IgG1 antibody, VH SEQ ID NO:9, VL SEQ ID NO:6 (antibody, V domains shown)
VH: QIQLQQSGPELVKPGASVKISCKASGYTFTDYYLNWVKQRCGQGLEWIGLIFPGNDKTEYSEKFKGKATLTVDTSSSTAYIQLSRLSSEDSAIYFCSGGDYGGFVYWGQGTLVTVSS
VL: DIQMTQSPTSLSASVGETVTITCGASENIYGALNWYQRKQGKSPQLLIYGATNLADGMSSRFSGSGSGRQFSLKINSLHPDDVATYFCQNVLSSPLTFGSGTKLEIK
modifications: IgG1 constant regions; HCVR - VH P41C; LCVR
B7 was tested, and the Functionality (c-Met) was “Neutral”.

B8: 41C-chi-mAb3 (antibody, human IgG1, kappa, V domains shown)
VH: QIQLQQSGPELVKPGASVKISCKASGYTFTDYYLNWVKQRCGQGLEWIGLIFPGNDKTEYSEKFKGKATLTVDTSSSTAYIQLSRLSSEDSAIYFCSGGDYGGFVYWGQGTLVTVSS
VL: DIQMTQSPTSLSASVGETVTITCGASENIYGALNWYQRKQGKSPQLLIYGATNLADGMSSRFSGSGSGRQFSLKINSLHPDDVATYFCQNVLSSPLTFGSGTKLEIKR
notes: Chimeric IgG1 kappa with an engineered cysteine at HC position 41 (Kabat); also called HC-41C chimeric antibody mAb3
B8: binds [1].

B9: ADC3b (antibody, human IgG1, kappa, V domains shown)
VH: QVQLVQSGAEVKKPGASVKVSCKASGYTFTDYYLNWVRQACGQGLEWMGLIFPGNDKTEYSEKFKGRVTLTTDTSISTAYMELSSLTSDDTALYYCSGGDYGGFVYWGQGTLVTVSS
VL: DIQMTQSPSSLSASVGDRVTISCGASENIYGALNWYQQQPGKAPKVLIFGATNLADGVPSRFSGSGSGTDFTLTISSLQPEDFATYYCQNVLSSPLTFGQGTKLEIKR
modifications: vc-seco-DUBA linker-drug on the engineered cysteine at HC position 41 (Kabat); DAR 1.9
notes: Antibody-drug conjugate of mAb3b; also called mAb3b-vc-seco-DUBA
With B9 the “EC50 (read off the curve)” value [2] was roughly 0.04 µg/mL, the “Efficacy (%), in vitro cytotoxicity, MKN-45, -HGF” value [3] was 84% and the “Efficacy (%), in vitro cytotoxicity, NCI-H596, +HGF” value [3] was 44%. For the same molecule, the “Efficacy (%), in vitro cytotoxicity, NCI-H596, -HGF” value [3] was 10%, the “Efficacy (%), in vitro cytotoxicity, PC-3, +HGF” value [3] was 75% and the “Efficacy (%), in vitro cytotoxicity, PC-3, -HGF” value [3] was 75%. For the same molecule, the “IC50 1, in vitro cytotoxicity, PC-3, -HGF” value [3] was 0.05 nM, the “IC50, in vitro cytotoxicity, MKN-45, -HGF” value [3] was 0.38 nM and the “IC50, in vitro cytotoxicity, NCI-H596, +HGF” value [3] was 1.47 nM. For the same molecule, the “IC50, in vitro cytotoxicity, NCI-H596, -HGF” value [3] was greater than 10 nM and the “IC50, in vitro cytotoxicity, PC-3, +HGF” value [3] was roughly 1.01 nM.
